Laboratory results: patent US20190282654A1 (OHIO STATE INNOVATION FOUNDATION, published 2019)
Square brackets hold non-standard residues; d marks the D form. Ends that are not written are not given here. 2Nal = N[C@@H](Cc1ccc2ccccc2c1)C(=O)O

Biological target: T1, GST-NEMO(1-196) (UniProt Q9Y6K9 1-196)
T1 construct: range 1-196; Expressed in E. coli from pGEX4T3-GST-NEMO(1-196) and purified on glutathione-Sepharose; Used with the GST tag in the HTRF assay (30 nM); also called Recombinant GST-NEMO; NF-κB essential modifier; not shown: glutathione S-transferase (GST) tag encoded by the pGEX4T3 vector
Assay: HTRF competition, NEMO-IKK interaction (FIG. 6)
Protocol: The plate was incubated for 2 h at room temperature. […] The data was analyzed using GraphPad Prism 6.0 and IC₅₀ values were obtained by fitting the data to the dose-response inhibition curves.

T1 sequence (Q9Y6K9 1-196): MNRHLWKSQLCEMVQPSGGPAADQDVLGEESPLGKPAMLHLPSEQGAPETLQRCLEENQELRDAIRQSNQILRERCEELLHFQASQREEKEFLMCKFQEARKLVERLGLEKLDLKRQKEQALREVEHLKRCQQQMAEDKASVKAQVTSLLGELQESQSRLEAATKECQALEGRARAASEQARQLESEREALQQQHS

Binder | IC50 [nM]
RRRR[2Nal]FTALDWSWLQT [RRRRΦFTALDWSWLQT] | 1600
RRRR[2Nal]FCALDWSWLQC (cysteine pairing not given here) [RRRRΦFCALDWSWLQC] | 1400
